Data on 19 molecules can be found in patent publication US20190010203A1 (ADEPTHERA, published 2019).

Non-standard residues stand in square brackets, D forms with d. No end group written: not given here. *: point of attachment. Palmitoyl = CCCCCCCCCCCCCCCC(=O)*; AEEEA = NCCOCCOCCOCC(=O)O; AEEA = NCCOCCOCC(=O)O

Sequences and labels used below:
B1: SEQ ID NO: 78 (peptide)
peptide: [AEEEA]K(Palmitoyl)VQKLAHQIYQFTDKDKDNSAPVDPSSPHSY-NH2
modifications: N-terminus assumed
SMILES: CCCCCCCCCCCCCCCC(=O)NCCCC[C@H](NC(=O)COCCOCCOCCN)C(=O)N[C@H](C(=O)N[C@@H](CCC(N)=O)C(=O)N[C@@H](CCCCN)C(=O)N[C@@H](CC(C)C)C(=O)N[C@@H](C)C(=O)N[C@@H](Cc1c[nH]cn1)C(=O)N[C@@H](CCC(N)=O)C(=O)N[C@H](C(=O)N[C@@H](Cc1ccc(O)cc1)C(=O)N[C@@H](CCC(N)=O)C(=O)N[C@@H](Cc1ccccc1)C(=O)N[C@H](C(=O)N[C@@H](CC(=O)O)C(=O)N[C@@H](CCCCN)C(=O)N[C@@H](CC(=O)O)C(=O)N[C@@H](CCCCN)C(=O)N[C@@H](CC(=O)O)C(=O)N[C@@H](CC(N)=O)C(=O)N[C@@H](CO)C(=O)N[C@@H](C)C(=O)N1CCC[C@H]1C(=O)N[C@H](C(=O)N[C@@H](CC(=O)O)C(=O)N1CCC[C@H]1C(=O)N[C@@H](CO)C(=O)N[C@@H](CO)C(=O)N1CCC[C@H]1C(=O)N[C@@H](Cc1c[nH]cn1)C(=O)N[C@@H](CO)C(=O)N[C@@H](Cc1ccc(O)cc1)C(N)=O)C(C)C)[C@@H](C)O)[C@@H](C)CC)C(C)C

T2 sequence (Q16602 23-461 limits assumed, chain 1 of 2): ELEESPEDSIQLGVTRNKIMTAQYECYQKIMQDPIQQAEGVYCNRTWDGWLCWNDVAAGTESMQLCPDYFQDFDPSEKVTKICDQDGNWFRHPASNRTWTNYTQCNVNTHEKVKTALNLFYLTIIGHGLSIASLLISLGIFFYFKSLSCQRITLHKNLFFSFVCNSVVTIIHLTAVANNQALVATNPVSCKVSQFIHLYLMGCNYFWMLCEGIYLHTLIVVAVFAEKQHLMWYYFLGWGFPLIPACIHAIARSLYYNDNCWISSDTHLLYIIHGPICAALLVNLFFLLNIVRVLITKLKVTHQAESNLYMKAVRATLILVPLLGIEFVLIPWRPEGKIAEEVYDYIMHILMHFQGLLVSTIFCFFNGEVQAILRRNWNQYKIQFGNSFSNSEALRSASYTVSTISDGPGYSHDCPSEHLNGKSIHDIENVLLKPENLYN
T2 sequence (O60895 43-175 limits assumed, chain 2 of 2): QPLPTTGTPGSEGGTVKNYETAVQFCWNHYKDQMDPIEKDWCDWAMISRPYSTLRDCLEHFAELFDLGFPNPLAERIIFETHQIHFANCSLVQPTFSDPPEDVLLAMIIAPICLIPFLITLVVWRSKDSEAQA

For the first assay, the target named is T1, CLR/RAMP3 receptor (UniProt Q16602 23-461; O60896 24-148, limits assumed). The experiment in a line: cell-based or functional assay.
T1 sequence (Q16602 23-461 limits assumed, chain 1 of 2): as the sequence (Q16602 23-461 limits assumed, chain 1 of 2) above
T1 sequence (O60896 24-148 limits assumed, chain 2 of 2): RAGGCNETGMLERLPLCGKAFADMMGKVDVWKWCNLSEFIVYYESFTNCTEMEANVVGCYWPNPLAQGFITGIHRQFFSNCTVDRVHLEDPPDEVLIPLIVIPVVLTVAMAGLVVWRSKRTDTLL
As for B1, the “IC50 (nM), CLR/RAMP3 cAMP antagonist assay” value came to 0.8 nM and the “Max Activity % of positive control, CLR/RAMP3 antagonist assay” value was 101 % of positive control.
Turning to Palmitoyl-KVQKLAHQIYQFTDKDSAPVDPSSPHSY-NH2 [SEQ ID NO: 121], the “IC50 (nM), CLR/RAMP3 cAMP antagonist assay” value was found to be 1.8 nM.
On the same count and under the same terms, under Ac-VTHRLAGLLSRFTDKDKDNVAPRSKISPQGY-NH2 [SEQ ID NO: 115] stands 115 nM; under [AEEA]K(Palmitoyl)VQKLAHQIYSAPVDPSSPHSY-NH2 [SEQ ID NO: 114], 8.4 nM.
Still for that read-out and setting: under Palmitoyl-KVQNLSHRLWQLMGPAGSAPVDPSSPHSY-NH2 [SEQ ID NO: 120] stands 9.2 nM; under [AEEA]K(Palmitoyl)VQKLAHQIYQFTDKDSAPVDPSSPHSY-NH2 [SEQ ID NO: 112], 2.3 nM.
The same measure, in the same setting: under Palmitoyl-KVQKLAHQIYSAPVDPSSPHSY-NH2 [SEQ ID NO: 122] stands 4.1 nM; under Palmitoyl-KVQKLAHQIYQFTDKDVAPRSKISPQGY-NH2 [SEQ ID NO: 119], 1.5 nM.
Take Palmitoyl-KVQKLAHQSAPVDPSSPHSY-NH2 [SEQ ID NO: 124]: the “Max Activity % of positive control, CLR/RAMP3 antagonist assay” value is 102 % of positive control.
For Ac-TVQKLAHRLWQLMGPDKDNVAPRSKISPQGY-NH2 [SEQ ID NO: 116], the “IC50 (nM), CLR/RAMP3 cAMP antagonist assay” value stood at 53 nM.

Another assay addresses T2, CLR/RAMP2 receptor (UniProt Q16602 23-461; O60895 43-175, limits assumed). The experiment in a line: cell-based or functional assay.
As to B1, the “IC50 (nM), ADM-stimulated CLR/RAMP2 arrestin assay” value stood at 34 nM and the “Max Activity % of positive control, ADM-stimulated CLR/RAMP2 antagonist assay” value is 107 % of positive control.
Consider Palmitoyl-KVQKLAHQIYQFTDKDSAPVDPSSPHSY-NH2 [SEQ ID NO: 121], for which the “IC50 (nM), ADM-stimulated CLR/RAMP2 arrestin assay” value is 4.9 nM.
On the same count and under the same terms, under Ac-VTHRLAGLLSRFTDKDKDNVAPRSKISPQGY-NH2 [SEQ ID NO: 115] stands 117 nM; under [AEEA]K(Palmitoyl)VQKLAHQIYSAPVDPSSPHSY-NH2 [SEQ ID NO: 114], 146 nM; under Palmitoyl-KVQNLSHRLWQLMGPAGSAPVDPSSPHSY-NH2 [SEQ ID NO: 120], 85 nM.
On the same count and under the same terms, next, [AEEA]K(Palmitoyl)VQKLAHQIYQFTDKDSAPVDPSSPHSY-NH2 [SEQ ID NO: 112]: 5.3 nM; Palmitoyl-KVQKLAHQIYQFTDKSAPVDPSSPHSY-NH2 [SEQ ID NO: 125]: 7.1 nM; Palmitoyl-KVQKLAHQIYSAPVDPSSPHSY-NH2 [SEQ ID NO: 122]: 61 nM.
On the same count and under the same terms, next, Palmitoyl-TVQKLAHQIYQFTDKDKDNSAPVDPSSPHSY-NH2 [SEQ ID NO: 77]: 47 nM; Palmitoyl-KVQKLAHQISAPVDPSSPHSY-NH2 [SEQ ID NO: 123]: 50 nM; Palmitoyl-KVQKLAHQIYQFTDKDVAPRSKISPQGY-NH2 [SEQ ID NO: 119]: 0.6 nM.
Regarding Palmitoyl-KVQKLAHQSAPVDPSSPHSY-NH2 [SEQ ID NO: 124], the “Max Activity % of positive control, ADM-stimulated CLR/RAMP2 antagonist assay” value was 103 % of positive control.
As for Ac-TVQKLAHRLWQLMGPDKDNVAPRSKISPQGY-NH2 [SEQ ID NO: 116], the “IC50 (nM), ADM-stimulated CLR/RAMP2 arrestin assay” value amounted to 7.3 nM.
On the same count and under the same terms, under Ac-TVQKLAHQIYQFTDKDKDNSAPVDPSSPHSY-NH2 [SEQ ID NO: 76] stands 289 nM.

The target of another assay is T3, CLR/RAMP1 receptor (UniProt Q16602 23-461; O60894 27-148, limits assumed). The experiment in a line: cell-based or functional assay.
T3 sequence (Q16602 23-461 limits assumed, chain 1 of 2): as the sequence (Q16602 23-461 limits assumed, chain 1 of 2) above
T3 sequence (O60894 27-148 limits assumed, chain 2 of 2): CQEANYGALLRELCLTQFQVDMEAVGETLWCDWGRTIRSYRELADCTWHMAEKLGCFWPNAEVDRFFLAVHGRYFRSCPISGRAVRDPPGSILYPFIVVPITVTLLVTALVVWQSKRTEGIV
As to B1, the “IC50 (nM), CGRP-stimulated CLR/RAMP1 cAMP assay” value was found to be 4.8 nM and the “Max Activity % of positive control, CGRP-stimulated CLR/RAMP1 antagonist assay” value was 104 % of positive control.
Turning to Palmitoyl-KVQKLAHQIYQFTDKDSAPVDPSSPHSY-NH2 [SEQ ID NO: 121], the “IC50 (nM), CGRP-stimulated CLR/RAMP1 cAMP assay” value worked out at 3.2 nM.
Still for that read-out and setting: under Ac-VTHRLAGLLSRFTDKDKDNVAPRSKISPQGY-NH2 [SEQ ID NO: 115] stands 1880 nM; under [AEEA]K(Palmitoyl)VQKLAHQIYSAPVDPSSPHSY-NH2 [SEQ ID NO: 114], 4.8 nM; under Palmitoyl-KVQNLSHRLWQLMGPAGSAPVDPSSPHSY-NH2 [SEQ ID NO: 120], 5.8 nM.
Still for that read-out and setting: next, [AEEA]K(Palmitoyl)VQKLAHQIYQFTDKDSAPVDPSSPHSY-NH2 [SEQ ID NO: 112]: 1.8 nM.
The same measure, in the same setting: under Palmitoyl-KVQKLAHQIYQFTDKSAPVDPSSPHSY-NH2 [SEQ ID NO: 125] stands 7 nM; under Palmitoyl-KVQKLAHQIYSAPVDPSSPHSY-NH2 [SEQ ID NO: 122], 7.3 nM.
With Palmitoyl-TVQKLAHQIYQFTDKDKDNSAPVDPSSPHSY-NH2 [SEQ ID NO: 77], the “IC50 (nM), CGRP-stimulated CLR/RAMP1 cAMP assay” value is 9.9 nM.
Still for that read-out and setting: next, Palmitoyl-KVQKLAHQISAPVDPSSPHSY-NH2 [SEQ ID NO: 123]: 4.7 nM; Palmitoyl-KVQKLAHQIYQFTDKDVAPRSKISPQGY-NH2 [SEQ ID NO: 119]: 21 nM.
For the molecule Palmitoyl-KVQKLAHQSAPVDPSSPHSY-NH2 [SEQ ID NO: 124], the “Max Activity % of positive control, CGRP-stimulated CLR/RAMP1 antagonist assay” value was 95 % of positive control.
Consider Ac-TVQKLAHRLWQLMGPDKDNVAPRSKISPQGY-NH2 [SEQ ID NO: 116], for which the “IC50 (nM), CGRP-stimulated CLR/RAMP1 cAMP assay” value stood at 152 nM.
On the same count and under the same terms, under Ac-TVQKLAHQIYQFTDKDKDNSAPVDPSSPHSY-NH2 [SEQ ID NO: 76] stands 1120 nM.

A further assay concerns the target T1, CLR/RAMP3 receptor. The experiment in a line: cell-based or functional assay. The source holds these as a separate data set.
On to KGCRFGTCTVQKLAHQIYQFTDKDKDNVAPRSKISPQGY (N-terminal miniPEG; palmitoyl on Lys 1 side chain, K(PAL); C-terminal amide) [SEQ ID NO: 69], for which the “EC50 (nM), CLR/RAMP3 cAMP assay” value was 0.6 nM.
Same read-out and setting: next, miniPEG-K(Palmitoyl)GCRFGTCTVQKLAHQIYQFTDKDSAPVDPSSPHSY-NH2 (ends and bridges not checked) [SEQ ID NO: 48]: 0.07 nM; miniPEG-K(Palmitoyl)GCRFGTCTVQKLAHQIYQFTDKDVAPRSKISPQGY-NH2 (ends and bridges not checked) [SEQ ID NO: 101]: 0.5 nM.
Still for that read-out and setting: next, Palmitoyl-KGCRFGTCTVQKLAHQIYQFTDKDVAPRSKISPQGY-NH2 (ends and bridges not checked) [SEQ ID NO: 103]: 0.3 nM; Palmitoyl-KGCRFGTCTVQKLAHQIYQFTDKDSAPVDPSSPHSY-NH2 (ends and bridges not checked) [SEQ ID NO: 92]: 0.2 nM.

A further assay deals with T2, CLR/RAMP2 receptor. The experiment in a line: cell-based or functional assay. The source holds these as a separate data set.
As for KGCRFGTCTVQKLAHQIYQFTDKDKDNVAPRSKISPQGY (N-terminal miniPEG; palmitoyl on Lys 1 side chain, K(PAL); C-terminal amide) [SEQ ID NO: 69], the “EC50 (nM), CLR/RAMP2 arrestin assay” value was determined as 0.6 nM.
On the same count and under the same terms, under miniPEG-K(Palmitoyl)GCRFGTCTVQKLAHQIYQFTDKDSAPVDPSSPHSY-NH2 (ends and bridges not checked) [SEQ ID NO: 48] stands 0.2 nM; under Palmitoyl-KGCRFGTCTVQKLAHQIYQFTDKDVAPRSKISPQGY-NH2 (ends and bridges not checked) [SEQ ID NO: 103], 0.7 nM; under Palmitoyl-KGCRFGTCTVQKLAHQIYQFTDKDSAPVDPSSPHSY-NH2 (ends and bridges not checked) [SEQ ID NO: 92], 0.3 nM.

The next assay deals with T3, CLR/RAMP1 receptor. The experiment in a line: cell-based or functional assay. The source holds these as a separate data set.
Consider miniPEG-K(Palmitoyl)GCRFGTCTVQKLAHQIYQFTDKDSAPVDPSSPHSY-NH2 (ends and bridges not checked) [SEQ ID NO: 48], for which the “EC50 (nM), CLR/RAMP1 cAMP assay” value came out at 0.3 nM.
Still for that read-out and setting: under Palmitoyl-KGCRFGTCTVQKLAHQIYQFTDKDVAPRSKISPQGY-NH2 (ends and bridges not checked) [SEQ ID NO: 103] stands 4.5 nM; under Palmitoyl-KGCRFGTCTVQKLAHQIYQFTDKDSAPVDPSSPHSY-NH2 (ends and bridges not checked) [SEQ ID NO: 92], 0.4 nM.
